In PMC4247251:

Target: PhTX-II PLA2 (Porthidium hyoprora)

Substance	inhibition of the PLA2 enzymatic activity of PhTX-II (substrate 4-nitro-3-(octanoyloxy) benzoic acid) after incubating the two proteins 1:1 w/w for 30 min at 37 °C
crotapotin F2 from Crotalus durissus collilineatus (natural protein)	60%
crotapotin F3 from Crotalus durissus collilineatus (natural protein)	60%
